This note sets out measurements from the RNAGym collection of RNA variant scans (doi:10.7554/elife.80360).

B1: HDV Ribozyme (parent)
chain: GGCCGGCAUGGUCCCAGCCUCCUCGCUGGCGCCGGCUGGGCAACAUUCCGAGGGGACCGUCCCCUCGGUAAUGGCGAAUGGGACCCA

The variants in this data set derive from B1. The experiment in a line: self-cleavage, relative activity (ratio to wild type); higher = more cleavage; co-transcriptional.
In the case of GGCCGGCAUGGUCCCAGCCUCCUCGCUGGCGUCGUCUGGGCAACAUUCCGAGGGGACCGUCCCCUCGGUAAUGGCGAAUGGGACCCA, the self-cleavage came out at 0.376.

For GGCCGGCAUGGUCCCAGCCUCCUCGCUGGCGUCGGCUGGGCAACAUUCCGAGGGGACCGUCCCCUCGGUAAUGGCGAGUGGGACCCA, the self-cleavage was determined as 0.525.

Regarding GGCCGGCAUGGUCCCAGCCUCCUCGCUGGCGUCGGCUGGGAAACAUUCCGAGGGGACCGUCCCCUCGGUAAUGGCGAAUGGGACCCA, the self-cleavage stood at 0.591.

In the case of GGCCGGCAUGGUCCCAGCCUCCUCGCUGGCGUCGGCUCGGCAACAUUCCGAGGGGACCGUCCCCUCGGUAAUGGCGAAUGGGACCCA, the self-cleavage worked out at 0.233.

Regarding GGCCGGCAUGGUCCCAGCCUCCUCGCUGGCGCAGGCUGGGCAACAUUCGGAGGGGACCGUCCCCUCGGUAAUGGCGAAUGGGACCCA, the self-cleavage worked out at 0.166.

As for GGCCGGCAUGGUCCCAGCCUCCUCGCUGGCGUCGGCUGGGCAACAUUCCGAGGGGACCGUCCCCUCGGUAAUGGCGAAUGGGACCCC, the self-cleavage was 0.795.

On to GGCCGGCAUGGUCCCAGCCUCCUCGCUGGCGGCGGCUGGGCAACAUGCCGAGGGGACCGUCCCCUCGGUAAUGGCGAAUGGGACCCA, for which the self-cleavage turned out to be 0.0594.

Regarding GGCCGGCAUGGUCCCAGCCUCCUCGCUGGCGCAGGAUGGGCAACAUUCCGAGGGGACCGUCCCCUCGGUAAUGGCGAAUGGGACCCA, the self-cleavage is 0.213.

With GGCCGGCAUGGUCCCAGCCUCCUCGCUGGCGUCGGCUGGGCAACAUACCGAGGGGACCGUCCCCUCGGUAAUGGCGAAUGGGACCCA, the self-cleavage stood at 0.943.

On to GGCCGGCAUGGUCCCAGCCUCCUCGCUGGCGUCGGCUGGGCAACAUGCCGAGGGGACCGUCCCCUCGGUAAUGGCGAAUGGGACCCA, for which the self-cleavage came out at 1.03.

As for GGCCGGCAUGGUCCCAGCCUCCUCGCUGGCGGCGGCUGGGCAACAGUCCGAGGGGACCGUCCCCUCGGUAAUGGCGAAUGGGACCCA, the self-cleavage was determined as 0.

Regarding GGCCGGCAUGGUCCCAGCCUCCUCGCUGGCGUCGGCUGGGCAACAUUCCGUGGGGACCGUCCCCUCGGUAAUGGCGAAUGGGACCCA, the self-cleavage amounted to 0.884.

Take GGCCGGCAUGGUCCCAGCCUCCUCGCUGGCGCAGGCUGGGCAACAUUCCGAGGGGACCGUCCCCUCGGUCAUGGCGAAUGGGACCCA: the self-cleavage was 0.17.

Regarding GGCCGGCAUGGUCCCAGCCUCCUCGCUGGCGCAGGCUGGGCAACAUUCCGAGGGGACCGUCCCCUCGGUUAUGGCGAAUGGGACCCA, the self-cleavage stood at 0.458.

As for GGCCGGCAUGGUCCCAGCCUCCUCGCUGGCGCAGGCUGGGCAACAUUCCGAGGGGACCGUCCCCUCGGUGAUGGCGAAUGGGACCCA, the self-cleavage worked out at 0.198.

Regarding GGCCGGCAUGGUCCCAGCCUCCUCGCUGGCGUCGGCUGGGCAACAUUCCGAGGGGUCCGUCCCCUCGGUAAUGGCGAAUGGGACCCA, the self-cleavage was found to be 0.76.

On to GGCCGGCAUGGUCCCAGCCUCCUCGCUGGCGCAGGCUGGGCAACAUUCCGAGGGGACCGUCCCCUCGGUACUGGCGAAUGGGACCCA, for which the self-cleavage was determined as 0.248.

Take GGCCGGCAUGGUCCCAGCCUCCUCGCUGGCGUCGGCUGGGCUACAUUCCGAGGGGACCGUCCCCUCGGUAAUGGCGAAUGGGACCCA: the self-cleavage was 0.591.

For the variant GGCCGGCAUGGUCCCAGCCUCCUCGCUGGCGUCGGCUGGGCGACAUUCCGAGGGGACCGUCCCCUCGGUAAUGGCGAAUGGGACCCA, the self-cleavage was 0.244.

With GGCCGGCAUGGUCCCAGCCUCCUCGCUGGCGCAGGCUGGGCAACAUUCCGCGGGGACCGUCCCCUCGGUAAUGGCGAAUGGGACCCA, the self-cleavage is 0.147.

As for GGCCGGCAUGGUCCCAGCCUCCUCGCUGGCGUCGGCUGGCCAACAUUCCGAGGGGACCGUCCCCUCGGUAAUGGCGAAUGGGACCCA, the self-cleavage was 0.104.

On to GGCCGGCAUGGUCCCAGCCUCCUCGCUGGCGGCGGCUGGGCAACAUUCCGAGGGGACCGCCCCCUCGGUAAUGGCGAAUGGGACCCA, for which the self-cleavage turned out to be 0.0723.

GGCCGGCAUGGUCCCAGCCUCCUCGCUGGCGUCGGCUGGGCAACAUUCCGAGGGGACCGUCCCCUCGGGAAUGGCGAAUGGGACCCA: the self-cleavage was found to be 0.852.

On to GGCCGGCAUGGUCCCAGCCUCCUCGCUGGCGUCGGCUGGGCAACAUUCCGAGGGGACCGUCCCCUCGGUAAUGUCGAAUGGGACCCA, for which the self-cleavage turned out to be 0.176.

Turning to GGCCGGCAUGGUCCCAGCCUCCUCGCUGGCGUCGGCUGGGCAACAUUCCGAGGGGACCGUCCCCUCGGUAAUGGCGUAUGGGACCCA, the self-cleavage was 0.496.

Regarding GGCCGGCAUGGUCCCAGCCUCCUCGCUGGCGCAGGCUGGGCAACAUUCCGAGGGGACCGUCCCCUCGGUAAUGGCGAUUGGGACCCA, the self-cleavage stood at 0.108.

For the variant GGCCGGCAUGGUCCCAGCCUCCUCGCUGGCGGCGGCUGGGCAACAUUCCGAGGGGACCGUCCCCCCGGUAAUGGCGAAUGGGACCCA, the self-cleavage came to 0.135.

As for GGCCGGCAUGGUCCCAGCCUCCUCGCUGGCGUCGGCUGGGCAACAUUCCGAGGGGACCGUCCCAUCGGUAAUGGCGAAUGGGACCCA, the self-cleavage stood at 0.831.

Take GGCCGGCAUGGUCCCAGCCUCCUCGCUGGCGUCGGCUGGGCAACAUUCCGAGGGGACCGUCCCCUCGGUAAUGGCGAAUGGGACCCA: the self-cleavage was 0.881.

With GGCCGGCAUGGUCCCAGCCUCCUCGCUGGCGUCGGCUGCGCAACAUUCCGAGGGGACCGUCCCCUCGGUAAUGGCGAAUGGGACCCA, the self-cleavage stood at 0.122.

GGCCGGCAUGGUCCCAGCCUCCUCGCUGGCGCAGGCUGGGCACCAUUCCGAGGGGACCGUCCCCUCGGUAAUGGCGAAUGGGACCCA: the self-cleavage was found to be 0.0852.

For GGCCGGCAUGGUCCCAGCCUCCUCGCUGGCGCAGGCUGGGCAAAAUUCCGAGGGGACCGUCCCCUCGGUAAUGGCGAAUGGGACCCA, the self-cleavage was determined as 0.

On to GGCCGGCAUGGUCCCAGCCUCCUCGCUGGCGCAGGCUGGGCAAGAUUCCGAGGGGACCGUCCCCUCGGUAAUGGCGAAUGGGACCCA, for which the self-cleavage amounted to 0.0475.

As for GGCCGGCAUGGUCCCAGCCUCCUCGCUGGCGUCGGCUGGGCAACAUUCCGAGGGGACCGUCCCCUCGGUAAUGGAGAAUGGGACCCA, the self-cleavage turned out to be 0.0692.

GGCCGGCAUGGUCCCAGCCUCCUCGCUGGCGCAGGCUGGGCAACAUUCCGAGGGGAACGUCCCCUCGGUAAUGGCGAAUGGGACCCA: the self-cleavage came to 0.447.

On to GGCCGGCAUGGUCCCAGCCUCCUCGCUGGCGCAGGCUGGGCAACAUUCCGAGGGGACCGUCCCCUCGGUAAUGGCGAAUGGGACCCG, for which the self-cleavage came to 0.14.

Take GGCCGGCAUGGUCCCAGCCUCCUCGCUGGCGCAGGCUGGGCAACAUUCCGAGGGGACCGUCCCCUCGGUAAUGGCGAAUGGGACCCC: the self-cleavage stood at 0.248.

On to GGCCGGCAUGGUCCCAGCCUCCUCGCUGGCGUCGGCUGGGCAACAUUCCGAGGAGACCGUCCCCUCGGUAAUGGCGAAUGGGACCCA, for which the self-cleavage stood at 0.891.

Take GGCCGGCAUGGUCCCAGCCUCCUCGCUGGCGCAGGCUGGGCAACAUUCCGAGGGGACCGUCCCCUCGGUAAUGGCGAAUGGGCCCCA: the self-cleavage was found to be 0.0449.

As for GGCCGGCAUGGUCCCAGCCUCCUCGCUGGCGUCGGAUGGGCAACAUUCCGAGGGGACCGUCCCCUCGGUAAUGGCGAAUGGGACCCA, the self-cleavage was found to be 0.17.

With GGCCGGCAUGGUCCCAGCCUCCUCGCUGGCGUCGGUUGGGCAACAUUCCGAGGGGACCGUCCCCUCGGUAAUGGCGAAUGGGACCCA, the self-cleavage worked out at 0.493.

As for GGCCGGCAUGGUCCCAGCCUCCUCGCUGGCGUCGGCUGGGCAACAUUCCGAGGGGACCGUCCCCUCGGUAAUGGCGAAAGGGACCCA, the self-cleavage worked out at 0.653.

Consider GGCCGGCAUGGUCCCAGCCUCCUCGCUGGCGUCGGCUGGGCAACAUUCCGAGGGGACCGUCCCCUCGGUAACGGCGAAUGGGACCCA, for which the self-cleavage is 0.532.

As for GGCCGGCAUGGUCCCAGCCUCCUCGCUGGCGUCGGCUGGGCAACAUUCGGAGGGGACCGUCCCCUCGGUAAUGGCGAAUGGGACCCA, the self-cleavage is 0.743.

As for GGCCGGCAUGGUCCCAGCCUCCUCGCUGGCGUCGGCUGGGCAACAUUCCGAGGGGACCGUCCCCUCGGUAAUGGCCAAUGGGACCCA, the self-cleavage was found to be 0.854.

Regarding GGCCGGCAUGGUCCCAGCCUCCUCGCUGGCGUCGGCUGGGCAACAUUCCGAGGGGACCGUCCCCUCGGUAAUGGCUAAUGGGACCCA, the self-cleavage came to 0.751.

Turning to GGCCGGCAUGGUCCCAGCCUCCUCGCUGGCGUCGGCUGGGCAACAUUCCGAGGGGACCGUCCCCUCGGUAAUGGCAAAUGGGACCCA, the self-cleavage was determined as 0.946.

As for GGCCGGCAUGGUCCCAGCCUCCUCGCUGGCGUCGGCUGGGCAAUAUUCCGAGGGGACCGUCCCCUCGGUAAUGGCGAAUGGGACCCA, the self-cleavage turned out to be 0.564.

Take GGCCGGCAUGGUCCCAGCCUCCUCGCUGGCGUCGGCUGGGCAACAUUCCGAGGGGACCGGCCCCUCGGUAAUGGCGAAUGGGACCCA: the self-cleavage amounted to 1.02.

Take GGCCGGCAUGGUCCCAGCCUCCUCGCUGGCGCAGGCUGGGAAACAUUCCGAGGGGACCGUCCCCUCGGUAAUGGCGAAUGGGACCCA: the self-cleavage stood at 0.0845.

For the variant GGCCGGCAUGGUCCCAGCCUCCUCGCUGGCGCAGGCUGGGGAACAUUCCGAGGGGACCGUCCCCUCGGUAAUGGCGAAUGGGACCCA, the self-cleavage was 0.104.

As for GGCCGGCAUGGUCCCAGCCUCCUCGCUGGCGUCGGCUGGGCAACAUUCCGAGGGGACCGUCCCCUCCGUAAUGGCGAAUGGGACCCA, the self-cleavage amounted to 0.997.

GGCCGGCAUGGUCCCAGCCUCCUCGCUGGCGCAGGCUGGGCCACAUUCCGAGGGGACCGUCCCCUCGGUAAUGGCGAAUGGGACCCA: the self-cleavage was found to be 0.146.

GGCCGGCAUGGUCCCAGCCUCCUCGCUGGCGUCGGCUGGGCAACAUUCCGAGGGGACCGUCCCCUCGGUAAUGGCGAAUGGGACCGA: the self-cleavage came out at 0.739.

GGCCGGCAUGGUCCCAGCCUCCUCGCUGGCGUCGGCUGGGCAACAUUCCGAGGGGACCCUCCCCUCGGUAAUGGCGAAUGGGACCCA: the self-cleavage came out at 0.734.

As to GGCCGGCAUGGUCCCAGCCUCCUCGCUGGCGGCGGCUGGGCAACAUUCCGAGGGGACCGUCCCCUCGGUAAAGGCGAAUGGGACCCA, the self-cleavage came out at 0.0489.

Consider GGCCGGCAUGGUCCCAGCCUCCUCGCUGGCGGCGGCUGGGCAACAUUCCGAGGGGACCGUCCCCUCGGUAACGGCGAAUGGGACCCA, for which the self-cleavage was 0.104.

For the variant GGCCGGCAUGGUCCCAGCCUCCUCGCUGGCGUCGGCCGGGCAACAUUCCGAGGGGACCGUCCCCUCGGUAAUGGCGAAUGGGACCCA, the self-cleavage was 1.29.

As to GGCCGGCAUGGUCCCAGCCUCCUCGCUGGCGUCGGCGGGGCAACAUUCCGAGGGGACCGUCCCCUCGGUAAUGGCGAAUGGGACCCA, the self-cleavage came to 0.166.

Take GGCCGGCAUGGUCCCAGCCUCCUCGCUGGCGUCGGCUGGGCAACAUUCCGAGGGGACCGUCCGCUCGGUAAUGGCGAAUGGGACCCA: the self-cleavage came to 0.721.

As to GGCCGGCAUGGUCCCAGCCUCCUCGCUGGCGCAGGCUGGGCAACAUUUCGAGGGGACCGUCCCCUCGGUAAUGGCGAAUGGGACCCA, the self-cleavage was 0.163.

In the case of GGCCGGCAUGGUCCCAGCCUCCUCGCUGGCGCAGGCUGGGCAACAUUGCGAGGGGACCGUCCCCUCGGUAAUGGCGAAUGGGACCCA, the self-cleavage was 0.125.

Consider GGCCGGCAUGGUCCCAGCCUCCUCGCUGGCGUCGGCUGGGCAACAUUCCGACGGGACCGUCCCCUCGGUAAUGGCGAAUGGGACCCA, for which the self-cleavage is 0.751.

Turning to GGCCGGCAUGGUCCCAGCCUCCUCGCUGGCGUCGGCUGGGCAACAUUCCGAGGGGACGGUCCCCUCGGUAAUGGCGAAUGGGACCCA, the self-cleavage was 0.646.
